# According to paper PMC6899756, “Identification of amino acid residues of nerve growth factor important for neurite outgrowth in human dorsal root ganglion neurons” (The European Journal of Neuroscience, 2019):
# B1: Src homology 2 domain containing transforming protein 1 (SHC1) (natural protein, UniProt P29353 1-583, looked up)
# chain: MDLLPPKPKYNPLRNESLSSLEEGASGSTPPEELPSPSASSLGPILPPLPGDDSPTTLCSFFPRMSNLRLANPAGGRPGSKGEPGRAADDGEGIVGAAMPDSGPLPLLQDMNKLSGGGGRRTRVEGGQLGGEEWTRHGSFVNKPTRGWLHPNDKVMGPGVSYLVRYMGCVEVLQSMRALDFNTRTQVTREAISLVCEAVPGAKGATRRRKPCSRPLSSILGRSNLKFAGMPITLTVSTSSLNLMAADCKQIIANHHMQSISFASGGDPDTAEYVAYVAKDPVNQRACHILECPEGLAQDVISTIGQAFELRFKQYLRNPPKLVTPHDRMAGFDGSAWDEEEEEPPDHQYYNDFPGKEPPLGGVVDMRLREGAAPGAARPTAPNAQTPSHLGATLPVGQPVGGDPEVRKQMPPPPPCPGRELFDDPSYVNVQNLDKARQAVGGAGPPNPAINGSAPRDLFDMKPFEDALRVPPPPQSVSMAEQLRGEPWFHGKLSRREAEALLQLNGDFLVRESTTTPGQYVLTGLQSGQPKHLLLVDPEGVVRTKDHRFESVSHLISYHMDNHLPIISAGSELCLQQPVERKL
# Legend:
# [1] = target: T1, tropomyosin-related kinase A (TrkA) receptor (human, UniProt P04629-2 33-790, phosphotyrosine at 490 (Y490) and at 785 (Y785) after treatment of the cells with NGF); assay: cell-based or functional assay
# [2] = target: T1, tropomyosin-related kinase A (TrkA) …; assay: cell-based or functional assay; remark: listed apart in the source
# T1 sequence (P04629 other isoform, or with tags, fused parts or gaps): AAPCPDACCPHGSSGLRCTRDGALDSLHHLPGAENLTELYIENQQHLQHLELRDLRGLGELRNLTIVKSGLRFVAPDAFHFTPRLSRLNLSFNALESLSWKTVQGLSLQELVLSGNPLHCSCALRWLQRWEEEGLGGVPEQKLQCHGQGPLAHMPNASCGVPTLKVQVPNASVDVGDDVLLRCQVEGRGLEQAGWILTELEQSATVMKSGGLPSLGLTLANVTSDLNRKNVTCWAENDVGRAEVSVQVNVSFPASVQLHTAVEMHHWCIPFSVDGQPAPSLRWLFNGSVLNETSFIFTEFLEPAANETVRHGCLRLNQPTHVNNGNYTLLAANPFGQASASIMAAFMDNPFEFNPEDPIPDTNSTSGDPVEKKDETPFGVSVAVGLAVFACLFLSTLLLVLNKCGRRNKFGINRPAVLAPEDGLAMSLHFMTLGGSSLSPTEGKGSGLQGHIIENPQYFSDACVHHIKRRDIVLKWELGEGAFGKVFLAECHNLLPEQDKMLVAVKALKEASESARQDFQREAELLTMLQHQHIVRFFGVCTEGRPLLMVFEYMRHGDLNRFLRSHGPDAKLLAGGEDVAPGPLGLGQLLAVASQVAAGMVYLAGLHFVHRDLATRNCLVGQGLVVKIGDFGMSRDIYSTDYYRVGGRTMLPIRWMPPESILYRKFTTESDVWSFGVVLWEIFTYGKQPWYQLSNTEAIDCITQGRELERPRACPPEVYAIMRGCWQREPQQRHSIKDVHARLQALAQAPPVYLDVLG
binder,measurement,setting,value
B1,"EC50 of NGF-K95A/Q96A added to U2OS-TrkA/p75-SHC1 cells for the interaction between TrkA and SHC1 (enzyme fragment complementation, chemiluminescence)",[1],0.02 µg/mL
same,"EC50 of NGF-R100E added to U2OS-TrkA/p75-SHC1 cells for the interaction between TrkA and SHC1 (enzyme fragment complementation, chemiluminescence)",[1],0.00056 µg/mL
same,"EC50 of NGF-W99A added to U2OS-TrkA/p75-SHC1 cells for the interaction between TrkA and SHC1 (enzyme fragment complementation, chemiluminescence)",[1],0.023 µg/mL
same,"EC50 of wild-type NGF added to U2OS-TrkA/p75-SHC1 cells for the interaction between TrkA and SHC1 (enzyme fragment complementation, chemiluminescence)",[1],0.0042 µg/mL
same,"plateau of the second activation phase at around 10 μg/ml NGF-K95A/Q96A in U2OS-TrkA/p75-SHC1 cells, relative to wild-type NGF (interaction between TrkA and SHC1, enzyme fragment complementation)",[2],~300%
same,"second activation phase EC50 of NGF-K95A/Q96A in U2OS-TrkA/p75-SHC1 cells (interaction between TrkA and SHC1, enzyme fragment complementation)",[2],~3 µg/mL
